From patent publication US20100041875A1 come the findings set out here.

In assay [1] the target is wild-type JR-FL SOS gp140 (trimer) (HIV-1 isolate JR-FL (subtype B)) (UniProt P20871). Put plainly: SPR (BIAcore X): agent captured via Fc on protein G chip, 5 nM purified gp140 trimer injected. In general terms: In SPR one partner is held on a chip, and binding of the other changes the refractive index at the surface.
In assay [2] the target is JR-FL gp41 NT 1-5 SOS gp140 mutant (trimer) (HIV-1 isolate JR-FL (subtype B)) (UniProt P20871). The description is as above.
Assay [3] concerns the target full-length WT JR-FL (gp160) Env (JR-FL WT) (HIV-1 isolate JR-FL (subtype B)) (UniProt P20871). Put plainly: cell-based or functional assay.
The target in assay [4] is JR-FL gp41 NT 1-5 mutant Env (full-length gp160) (HIV-1 isolate JR-FL (subtype B)) (UniProt P20871). Put plainly: cell-based or functional assay.
Assay [5] deals with wild-type JR-FL SOS gp140 (trimer) (HIV-1 isolate JR-FL (subtype B)) (UniProt P20871). The experiment in a line: SPR (BIAcore X): agent captured via Fc on protein G chip, 5 nM purified gp140 trimer injected, no CD4.
The target of assay [6] is JR-FL gp41 NT 1-5 SOS gp140 mutant (trimer) (HIV-1 isolate JR-FL (subtype B)) (UniProt P20871). The description is as above.
Assay [7] deals with wild-type JR-FL SOS gp140 (trimer) (HIV-1 isolate JR-FL (subtype B)) (UniProt P20871). Put plainly: SPR (BIAcore X): 17b captured via Fc on protein G chip, 5 nM gp140 trimer pre-incubated 1 h with 6-molar excess D1D2-CD4.
Assay [8] has as its target JR-FL gp41 NT 1-5 SOS gp140 mutant (trimer) (HIV-1 isolate JR-FL (subtype B)) (UniProt P20871). The description is as above.
The target in assay [9] is wild-type JR-FL SOS gp140 (trimer) (HIV-1 isolate JR-FL (subtype B)) (UniProt P20871). The experiment in a line: SPR, with against without D1D2-CD4.
Assay [10] concerns the target JR-FL gp41 NT 1-5 SOS gp140 mutant (trimer) (HIV-1 isolate JR-FL (subtype B)) (UniProt P20871). The experiment in a line: SPR, with against without D1D2-CD4.

Consider “CD4-IgG2 (PRO 542) (from UniProt P01730 26-204) (Fc fusion)”, for which the Mean RU at end of injection (t = 180 s) amounted to 212 RU in [1] and 224 RU in [2]. Besides, the neutralization of Env-pseudotyped virus infectivity (U87.CD4.CCR5 cells), mean IC50 in [3] was determined as 0.82 µg/mL; in [4] it was 0.74 µg/mL.
For MAb 2F5 (antibody) the same measures were 191 RU, 216 RU, 6.2 µg/mL and 5.9 µg/mL.
For MAb 4E10 (antibody) the same measures were 83 RU, 94 RU, 13.4 µg/mL and 14.1 µg/mL.
For the substance MAb 15e (antibody), the neutralization of Env-pseudotyped virus infectivity (U87.CD4.CCR5 cells), mean IC50 in [3] and in assay [4] was > 50 µg/mL each time.
For MAb 17b (antibody), the Mean RU at end of injection (t = 180 s) in assay [5] was 39 RU; in assay [6], 14 RU; in assay [7], 237 RU; in [8], 399 RU. Further, the fold induction of 17b binding by D1D2-CD4 in [9] stood at 5 fold; in [10] it was 25 fold. In addition, the neutralization of Env-pseudotyped virus infectivity (U87.CD4.CCR5 cells), mean IC50 in assay [3] and in assay [4] was > 50 µg/mL each time. Besides, the neutralization of Env-pseudotyped virus infectivity in the presence of sCD4 (17b + sCD4), mean IC50 in [3] came out at 25.9 µg/mL; in assay [4] it was 15.2 µg/mL. Also, the neutralization in the presence of sCD4, fold against the WT virus in [4] was 2 fold.
For MAb A32 (antibody), the neutralization of Env-pseudotyped virus infectivity (U87.CD4.CCR5 cells), mean IC50 in assay [3] and in [4] was > 50 µg/mL throughout.
Regarding MAb F425-B4e8 (antibody), the neutralization of Env-pseudotyped virus infectivity (U87.CD4.CCR5 cells), mean IC50 in assay [3] was determined as 2.94 µg/mL; in assay [4] it was 2.64 µg/mL.
Take MAb b6 (antibody): the values for the Mean RU at end of injection (t = 180 s) in assay [1] and in assay [2] were 391 RU and 233 RU, respectively. Also, the neutralization of Env-pseudotyped virus infectivity (U87.CD4.CCR5 cells), mean IC50 in assay [3] and in assay [4] was > 50 µg/mL each time.
On to MAb b12 (antibody), for which the Mean RU at end of injection (t = 180 s) in assay [1] is 223 RU; in assay [2], 195 RU. Moreover, the figures for the neutralization of Env-pseudotyped virus infectivity (U87.CD4.CCR5 cells), mean IC50 in assay [3] and in assay [4] were 0.15 µg/mL and 0.17 µg/mL, respectively.
In the case of T-20 (Enfuvirtide) (peptide), in assay [3], the IC50 of neutralization, fold against the mutant came to 2 fold. Further, the neutralization of Env-pseudotyped virus infectivity (U87.CD4.CCR5 cells), mean IC50 in [3] was 24.2 nM; in assay [4] it was 11.5 nM.
For the substance monoclonal antibody (MAb) PA-1, the values for the Mean RU at end of injection (t = 180 s) in assay [1] and in assay [2] were 242 RU and 123 RU, respectively. Further, the neutralization of Env-pseudotyped virus infectivity (U87.CD4.CCR5 cells), mean IC50 in assay [3] and in assay [4] was > 50 µg/mL in each case.
